Experimental data: patent publication US10532083B2, “Methods for inducing differentiation or conversion of white adipocytes and/or preadipocytes to brown adipocites using FGF8” (Technische Universität München, priority 2014, dated 2020)

Experiments:
Assay type in all cases: cell-based, murine
[1] = tested on: visceral, epididymal white adipocytes; assay: Ucp1 / brown adipocyte marker mRNA (qPCR) in immortalized epididymal white adipocytes treated with FGFs; details: for Induction of Ucp1 mRNA expression (browning potential), screening of paracrine FGFs and FGF8 spliceforms: epididymal adipocytes, six days of differentiation, FGF8a, b, e, f 25.0 ng/ml, FGF17 10.0 ng/ml
Experimental: (§1) Screening paracrine FGFs for a browning potential. A, B—Screening of all paracrine FGFs in immortalized white adipocytes. Subcutaneous, inguinal and visceral, epididymal white adipocytes were grown to confluence in Dulbecco's modified Eagle's medium with 4.5 g/l glucose, supplemented with 20 nmol/l insulin, 1 nmol/l triiodothyronine, 20% fetal bovine serum, and penicillin/streptomycin. Upon reaching confluence, differentiation was induced with 500 mmol/l isobutylmethylxanthine, 250 mmol/l indomethacine, and 2 mg/ml dexamethasone for 24 hours. Subsequently, members of the paracrine FGF protein family were added to the medium for the following six days. The medium and the FGF indicated were changed every 48 hours. Untreated cells served as a negative control. At the end of the differentiation process total RNA was isolated using TRIzol reagents, RNA quality and concentration was measured by photometric analysis, and 5 μg of total RNA was reverse-transcribed to cDNA. Finally, quantitative analysis of UCP-1 mRNA expression was performed. A bar graph analysis including the SEM of 3 to 6 independent experiments is shown. […] B—Four different splicing forms of the Fgf8 gene were compared by quantifying Ucp1 mRNA expression in fully differentiated white adipocytes. UCP-1 mRNA abundance is shown in percent of the FGF8b value. Fgf8b and Fgf8f were able to increase expression in epididymal adipocytes. C—Illustration depicting the different exon usage that characterizes the FGF8 spliceforms a, b, e, and f.
(§2) Dose dependency of Ffg8b action. A, B—Subcutaneous, inguinal and visceral, epididymal white adipocytes were grown to confluence in Dulbecco's modified Eagle's medium with 4.5 g/l glucose, supplemented with 20 nmol/l insulin, 1 nmol/l triiodothyronine, 20% fetal bovine serum, and penicillin/streptomycin. Upon reaching confluence, differentiation was induced with 500 mmol/l isobutylmethylxanthine, 250 mmol/l indomethacine, and 2 mg/ml dexamethasone for 24 hours. Subsequently, FGF8b in five indicated concentrations were added to the medium for the following six days. The medium and the FGF8b were changed every 48 hours. Untreated cells served as a negative control. At the end of the differentiation process total RNA was isolated using TRIzol reagents, RNA quality and concentration was measured by photometric analysis, and 5 μg of total RNA was reverse-transcribed to cDNA. Finally, quantitative analysis of UCP-1 mRNA expression was performed. FGF8b induces Ucp1 mRNA abundance in inguinal and epididymal adipocytes. Epididymal fat cells were more dose dependently responsive to Fgf8b treatment as compared to inguinal cells. The latter were responsive to FGF8b treatment above the threshold indicated. B—The absolute increase of several genes typical for brown fat cells.
(§3) Treatment timecourse experiment. A, B—Subcutaneous, inguinal and visceral, epididymal white adipocytes were grown to confluence (prolif. denotes proliferation period) in Dulbecco's modified Eagle's medium with 4.5 g/l glucose, supplemented with 20 nmol/l insulin, 1 nmol/l triiodothyronine, 20% fetal bovine serum, and penicillin/streptomycin. Upon reaching confluence, differentiation was induced with 500 mmol/l isobutylmethylxanthine, 250 mmol/l indomethacine, and 2 mg/ml dexamethasone for 24 hours (induction). Subsequently, the cells were cultured for another six days (differentiation). At the end of the differentiation process total RNA was isolated using TRIzol reagents, RNA quality and concentration was measured by photometric analysis, and 5 μg of total RNA was reverse-transcribed to cDNA. Finally, quantitative analysis of UCP-1 mRNA expression was performed. Untreated cells served as a negative control. A bar graph analysis including the SEM of 5 independent experiments is shown. A—Epididymal fat cells were treated with FGF8b during different time windows as given by black squares indicating one day of treatment each. […]

[2] = tested on: subcutaneous, inguinal white adipocytes; assay: Ucp1 / brown adipocyte marker mRNA (qPCR) in immortalized inguinal white adipocytes treated with FGFs
Experimental: as §1, §2, §3

[3] = tested on: visceral, epididymal white adipocytes; assay: Ucp1 / brown adipocyte marker mRNA (qPCR) in immortalized epididymal white adipocytes treated with FGFs
[4] = continuous treatment during differentiation, fully differentiated cells (FIG. 2B)
[5] = epididymal cells treated 48 hours during proliferation prior to induction
[6] = epididymal cells treated 48 hours during proliferation prior to induction, sampled acute to d6 p.i.

B1: FGF8b: murine recombinant paracrine fibroblast growth factor 8, major spliceform b (R&D Systems); amino acid sequence identical to human, SEQ ID NO:16/20 (protein)
chain: MGSPRSALSCLLLHLLVLCLQAQVTVQSSPNFTQHVREQSLVTDQLSRRLIRTYQLYSRTSGKHVQVLANKRINAMAEDGDPFAKLIVETDTFGSRVRVRGAETGLYICMNKKGKLIAKSNGKGKDCVFTEIVLENNYTALQNAKYEGWYMAFTRKGRPRKGSKTRQHQREVHFMKRLPRGHHTTEQSLRFEFLNYPPFTRSLRGSQRTWAPEPR
modifications: human FGF8b
In the case of B1, the “Pgc1a mRNA” value ([1]; continuous treatment during differentiation, fully differentiated adipocytes (FIG. 2B)) is reported as “strongly downregulated”, the “Induction of Ucp1 mRNA expression (browning potential), screening of paracrine FGFs and FGF8 spliceforms” value (shortened to “Induction of Ucp1 mRNA expression”) [1] is reported as “increased expression of Ucp1 mRNA expression” and the “Induction of Ucp1 mRNA expression” value ([1]; listed as Fgf8b) is reported as “effective”. For the same molecule, the “Ucp1 mRNA abundance, dose dependency” value ([1]; epididymal cells, different concentrations during entire differentiation phase of 6 days) was “dose dependent manner”, the “Most effective concentration for Ucp1 induction” value ([1]; epididymal cells, highest concentration tested, 6 days of differentiation) was 125 ng/mL and the “Final Ucp1 mRNA abundance after full differentiation” value ([1]; epididymal cells, treatment during the induction period) was “inhibited Ucp1 induction”. For the same molecule, the “Ucp1 mRNA abundance, induction” value ([1]; fully differentiated epididymal cell line, treatment after induction for entire differentiation period of 6 days, screening concentration 25.0 ng/ml, untreated cells as control) was 27.4 fold, the “Ucp1 mRNA abundance, induction” value ([2]; fully differentiated inguinal cell line, treatment after induction for entire differentiation period of 6 days, screening concentration 25.0 ng/ml, untreated cells as control) was 2.1 fold and the “Induction of Ucp1 mRNA expression” value ([2]; inguinal adipocytes, six days of differentiation, FGF8a, b, e, f 25.0 ng/ml, FGF17 10.0 ng/ml) was “only isoform with browning potential”. The “Cidea mRNA abundance” value ([2]; inguinal adipocytes, treatment during differentiation, smaller effect size than in epididymal) was “increased”, the “Ucp1 mRNA abundance, dose dependency” value ([2]; inguinal cells, different concentrations during entire differentiation phase of 6 days) was “only the highest dose increased Ucp1 expression” and the “Most effective concentration for Ucp1 induction” value ([2]; inguinal cells, highest concentration tested, 6 days of differentiation) was 125 ng/mL. The “Final Ucp1 mRNA abundance after full differentiation (responsiveness)” value ([2]; inguinal cells, treatment during different days of proliferation, induction and/or differentiation) was “only responsive to FGF8b treatment in their fully differentiated state”, the “Cox7a1 mRNA” value [3, 4] was “not or only slightly increased” and the “Elovl3 mRNA” value [3, 4] was “not or only slightly increased”. The “Cidea mRNA abundance” value ([3]; epididymal adipocytes, treatment during differentiation, greater effect size than in inguinal) was “increased”, the “Cox7a1 mRNA abundance in mature adipocytes” value [3, 5] was “increased” and the “Foxc2 mRNA abundance, acute response” value [3, 5] was “do not acutely respond”. The “Prdm16 mRNA abundance, timecourse” value [3, 5] was “transient increase in abundance directly following induction”, the “pRb mRNA abundance, acute response” value [3, 5] was “do not acutely respond” and the “Cidea mRNA abundance, timecourse” value [3, 6] was “already increasing on day 4 p.i”. The “Elovl3 mRNA abundance, timecourse” value [3, 6] was “already increasing on day 4 p.i”, the “Ucp1 mRNA abundance, timecourse” value ([3]; epididymal cells treated 48 hours during proliferation prior to induction, sampled acute, d1, d2, d4, d6 p.i., normalized to untreated) was “increased 6 days after induction for the first time” and the “Pgc1a mRNA abundance after complete differentiation” value ([3]; epididymal cells treated 48 hours during proliferation, day 6 p.i.) was “increased Pgc1a mRNA abundance”. The “Pgc1a mRNA abundance, acute” value ([3]; epididymal cells treated 48 hours during proliferation, sample immediately after treatment) was “acutely downregulated”, the “Final Ucp1 mRNA abundance after full differentiation (responsiveness)” value ([3]; epididymal cells, comparably late treatment (fully differentiated state)) was “respond” and the “Final Ucp1 mRNA abundance after full differentiation” value ([3]; epididymal cells, treatment during the entire differentiation period) was “strongest Ucp1 induction”.
